Test results taken from patent US20210324102A1 (ACROIMMUNE BIOTECH, published 2021).

B1: murine monoclonal antibody m29 (antibody, mouse IgG2b, V domains shown)
VH: QVQLQQSVSELRSPGSSVKLSCKDFDSEVFPTSYMSWVRQKPGHGFEWIGDILPNIGRIFYGEKFEDKAKLDADTVSNTAYLELTSLSSEDSAIYYCAREAYGSILGYWGQGTLVAVSA
VL: DIVMTQTPLSLPVGLGDQASISCRSSQSLLHSNGNTYLHWYLQKPGQSPKLLIYKVSNRFSGVPDRFSGSGSGTDFTLKISRVEAEDLGVYFCSQSSHLPWTFGGGTKLEIK
notes: also called mouse monoclonal antibody m29; m29 monoclonal antibody
B2: human-mouse chimeric antibody ch29G (antibody, V domains shown)
VH: QVQLQQSVSELRSPGSSVKLSCKDFDSEVFPTSYMSWVRQKPGHGFEWIGDILPNIGRIFYGEKFEDKAKLDADTVSNTAYLELTSLSSEDSAIYYCAREAYGSILGYWGQGTLVAVSA
VL: DIVMTQTPLSLPVGLGDQASISCRSSQSLLHSNGNTYLHWYLQKPGQSPKLLIYKVSNRFSGVPDRFSGSGSGTDFTLKISRVEAEDLGVYFCSQSSHLPWTFGGGTKLEIK
notes: not shown: human IgG1 heavy chain constant region; human kappa light chain constant region (C-domain)
B3: Daratumumab (antibody, V domains shown)
VH: EVQLLESGGGLVQPGGSLRLSCAVSGFTFNSFAMSWVRQAPGKGLEWVSAISGSGGGTYYADSVKGRFTISRDNSKNTLYLQMNSLRAEDTAVYFCAKDKILWFGEPVFDYWGQGTLVTVSS
VL: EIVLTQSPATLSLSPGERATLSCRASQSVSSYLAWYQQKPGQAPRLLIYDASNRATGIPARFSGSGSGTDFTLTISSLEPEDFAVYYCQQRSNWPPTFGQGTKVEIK

Assays:
[1] = target: T1, cynomolgus macaque CD38 on CHO cells (CHO-cynomolgus CD38) (cynomolgus macaque, UniProt Q5VAN0 1-301); test: flow cytometry on CHO-cynomolgus CD38 cells
T1 construct: whole, on cells; also called CHO/mkCD38; mkCD38

[2] = target: human CD38 on cells (CHO-hCD38 / wild-type, and human tumor cell lines with positive CD38 expression) (human, UniProt P28907 1-300); test: cell-based or functional assay
[3] = target: T2, recombinant cynomolgus macaque CD38-his protein (Sino Biological Inc.) (cynomolgus macaque, UniProt Q5VAN0 44-301, limits assumed); test: direct ELISA, plate coated with recombinant cynomolgus macaque CD38-his protein
T2 construct: Bought protein; also called recombinant cynomolgus macaque CD38 protein; cynomolgus macaque CD38 protein; not shown: his tag

binding result [1] | EC50 of CDC activity, Daudi target cells, 10% rabbit serum [2] | binding result [3] | Binder
binds | ~0.03 µg/mL |  | B1
binds | ~0.03 µg/mL | binds | B2
 | 0.1 µg/mL |  | B3
